According to patent US20260028412A1 (PRECISION BIOSCIENCES, published 2026):
Changes are numbered by the printed parent chain.

T1: His-tagged BCMA protein (Homo sapiens (Human), UniProt Q02223 1-54)
T1 construct: not shown: His tag
T1 sequence: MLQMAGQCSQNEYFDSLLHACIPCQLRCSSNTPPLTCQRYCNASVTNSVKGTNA

B1: BCMA-3L/3H full-length IgG4 antibody (antibody, V domains shown)
VH: QIQLVQSGPELKKPGETVKISCKASGYTFTHYSINWVKRAPGKGLKWMGWINTESGEPTYAYDFKGRFAFSLETSASTAYLQINNLKYEDTATYFCALDYESAMDYWGQGTSVTVSS
VL: DIVLTQSPPSLAMSLGKRATISCRASESVTIPGQHLINWYQQKPGQPPKLLIQRASNVESGVPARFSGSGSRTDFTLTIDPVEEDDVAVYYCLQTRGIPRTFGGGTKLEIKR
notes: also called BCMA-3L/3H full length antibody
B2: BCMA-3L/20H full-length IgG4 antibody (antibody, V domains shown)
VH: B1 VH with S55T, G56R, P58S, E101K, S102Q
VL: B1 VL
notes: also called BCMA-3L/20H full length antibody; BCMA-3L/20H antibody clone

Key:
[1] = target: His-tagged BCMA protein (Homo sapiens (Human)) (UniProt Q02223); test: biolayer interferometry (Octet RED96), His-tagged BCMA loaded on Anti-Penta-HIS (HIS1K) sensors, antibody as analyte at 138.9 nM
[2] = target: human BCMA expressed on the cell surface (human) (UniProt Q02223); test: flow cytometry on K562-BCMA cells, goat anti-human IgG secondary
[3] = target: human BCMA expressed on the cell surface (human) (UniProt Q02223); test: flow cytometry on K562-BCMA cells, secondary antibody only
[4] = target: His-tagged BCMA protein (Homo sapiens (Human)) (UniProt Q02223); test: Octet RED96, His-tagged BCMA on anti-His biosensor tips, antibody as analyte
His-tagged BCMA protein [5] = target: T1, His-tagged BCMA protein; test: biolayer interferometry (Octet RED96), His-tagged BCMA loaded on Anti-Penta-HIS (HIS1K) sensors, antibody as analyte at 138.9 nM
Description: (§1) Four full length antibodies were analyzed using the OctetRED96 technology for assessment of binding affinity by measurement of the equilibrium dissociation constant (KD). Within the group of four were the two candidate anti-BCMA antibodies (BCMA-3L/3H and BCMA-3L/20H), the positive anti-BCMA control described in Example 1, and the anti-CD19 negative control described in Example 1. In the experiment, His-tagged BCMA protein was loaded onto anti-His antibody coated biosensor tips and supplied antibodies were utilized as analytes to measure KD.

His-tagged BCMA protein [6] = target: T1, His-tagged BCMA protein; test: Octet RED96, His-tagged BCMA on anti-His biosensor tips, antibody as analyte
Description: as §1

Molecule | Response [1] | % positive cells [2] | koff (His-tagged BCMA protein [5]) | kon (His-tagged BCMA protein [5]) | Kd (His-tagged BCMA protein [6]) | other results
full-length human IgG4 antibody expressing the anti-CD19 targeting moiety FMC63 | 0.0032 | 1.2% |  |  |  | 
goat anti-human IgG secondary antibody |  |  |  |  |  | % positive cells [3]: 0.18%
positive control IgG4 anti-BCMA antibody (comprising the VH and VL regions of the C11D5.3 antibody described in WO 2010/104949) | 2.31 | 10.1% |  |  |  | Kd [4]: < 0.001 nM; koff [1]: < 1e-07 s⁻¹; kon [1]: 236000 M⁻¹ s⁻¹
B1 |  |  | 0.000333 s⁻¹ | 242000 M⁻¹ s⁻¹ | 1.38 nM | 
B2 |  |  | 0.000458 s⁻¹ | 214000 M⁻¹ s⁻¹ | 2.14 nM | 
